Reference: US5969210, “Methods for the characterization of compounds which stimulate STF-1 expression in pancreatic islet cells” (Research Development Foundation)

Biological target: BETA-2/E47 heterodimer (reticulocyte lysate) (UniProt Q60430;P15923-2 Q60430:1-355,P15923-2:1-651)
Test: EMSA; BETA-2 and E-47 cDNAs
Conditions: label: 32P

Chain of BETA-2/E47 heterodimer (reticulocyte lysate) (Q60430 whole entry, chain 1 of 2): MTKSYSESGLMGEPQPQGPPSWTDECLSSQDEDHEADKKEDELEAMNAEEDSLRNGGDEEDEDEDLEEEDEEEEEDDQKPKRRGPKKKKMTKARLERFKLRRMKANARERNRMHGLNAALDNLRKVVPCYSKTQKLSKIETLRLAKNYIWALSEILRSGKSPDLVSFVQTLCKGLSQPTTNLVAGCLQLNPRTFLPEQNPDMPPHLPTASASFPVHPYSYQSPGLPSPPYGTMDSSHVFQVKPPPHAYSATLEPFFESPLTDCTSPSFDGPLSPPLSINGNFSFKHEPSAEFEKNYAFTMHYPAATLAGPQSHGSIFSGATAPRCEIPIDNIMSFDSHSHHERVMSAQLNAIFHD
Chain of BETA-2/E47 heterodimer (reticulocyte lysate) (P15923 other isoform, or with tags, fused parts or gaps, chain 2 of 2): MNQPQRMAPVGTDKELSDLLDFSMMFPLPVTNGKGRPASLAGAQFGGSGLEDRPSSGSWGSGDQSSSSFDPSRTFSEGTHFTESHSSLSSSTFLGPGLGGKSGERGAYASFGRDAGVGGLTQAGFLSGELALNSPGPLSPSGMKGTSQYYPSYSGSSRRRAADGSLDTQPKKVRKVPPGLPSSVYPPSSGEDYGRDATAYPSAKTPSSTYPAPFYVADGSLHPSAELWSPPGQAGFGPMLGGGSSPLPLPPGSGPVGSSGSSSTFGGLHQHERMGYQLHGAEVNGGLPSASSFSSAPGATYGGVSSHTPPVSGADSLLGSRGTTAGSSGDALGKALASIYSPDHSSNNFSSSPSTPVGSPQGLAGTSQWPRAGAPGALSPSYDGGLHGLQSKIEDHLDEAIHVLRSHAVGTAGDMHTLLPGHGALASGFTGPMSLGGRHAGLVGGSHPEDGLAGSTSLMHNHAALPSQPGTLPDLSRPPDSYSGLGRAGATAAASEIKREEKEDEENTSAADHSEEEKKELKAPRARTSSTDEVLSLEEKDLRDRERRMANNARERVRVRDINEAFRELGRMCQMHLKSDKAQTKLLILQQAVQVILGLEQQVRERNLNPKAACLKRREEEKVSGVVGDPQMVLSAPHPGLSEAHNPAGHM

B1: B element WT (dsDNA)
DNA 1: TCAGTGACAGATGGAGTCCT
DNA 2: AGGACTCCATCTGTCACTGA
binding result: binds
